Source: PMC2920595 (Science (New York, N.Y.), 2009)

Target: T1, Ssh1p (large subunit, as in the purified Ssh1 complex) (Saccharomyces cerevisiae, UniProt P38353 1-490)
T1 sequence (looked up): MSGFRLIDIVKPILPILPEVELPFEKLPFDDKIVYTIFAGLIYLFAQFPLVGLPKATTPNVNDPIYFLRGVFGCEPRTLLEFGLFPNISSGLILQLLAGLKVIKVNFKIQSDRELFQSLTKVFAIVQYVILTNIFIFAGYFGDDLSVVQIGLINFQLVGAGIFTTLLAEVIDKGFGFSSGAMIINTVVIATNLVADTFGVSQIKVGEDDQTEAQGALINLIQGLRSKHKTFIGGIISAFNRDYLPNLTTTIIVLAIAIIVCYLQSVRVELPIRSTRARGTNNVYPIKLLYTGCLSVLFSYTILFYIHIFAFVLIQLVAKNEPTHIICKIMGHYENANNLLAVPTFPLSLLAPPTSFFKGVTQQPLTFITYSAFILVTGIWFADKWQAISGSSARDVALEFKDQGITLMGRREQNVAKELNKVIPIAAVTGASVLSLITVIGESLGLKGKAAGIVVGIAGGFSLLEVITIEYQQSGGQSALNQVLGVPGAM
Assay: cryo-EM structure

B1: ribosomal protein rpL25 (yeast 60S subunit) (natural protein)
chain: not shown
- binding result: binds
